Substitutions are numbered along the chain they refer to. Numbers in names are those of the source.
B1: MAP2K4 p.Q142L: MAP2K4 somatic driver mutant, observed in colorectal adenocarcinoma (protein, UniProt P45985 2-399, looked up, variant Q142L)
Dual specificity …: AAPSPSGGGGSGGGSGSGTPGPVGSPAPGHPAVSSMQGKRKALKLNFANPPFKSTARFTLNPNPTGVQNPHIERLRTHSIESSGKLKISPEQHWDFTAEDLKDLGEIGRGAYGSVNKMVHKPSGQIMAVKRIRSTVDEKELKQLLMDLDVVMRSSDCPYIVQFYGALFREGDCWICMELMSTSFDKFYKYVYSVLDDVIPEEILGKITLATVKALNHLKENLKIIHRDIKPSNILLDRSGNIKLCDFGISGQLVDSIAKTRDAGCRPYMAPERIDPSASRQGYDVRSDVWSLGITLYELATGRFPYPKWNSVFDQLTQVVKGDPPQLSNSEEREFSPSFINFVNLCLTKDESKRPKYKELLKHPFILMYEERAVEVACYVCKILDQMPATPSSPMYVD
B2: MAP2K4 p.R154W: MAP2K4 somatic driver mutant, observed in colorectal adenocarcinoma (protein, UniProt P45985 2-399, looked up, variant R154W)
Dual specificity …: B1 Dual specificity … with L141Q, R153W
B3: MAP2K7 WT: wild type MAP2K7 kinase ORF expressed in HMEL cells (protein, UniProt O14733 2-419, looked up)
Dual specificity …: AASSLEQKLSRLEAKLKQENREARRRIDLNLDISPQRPRPTLQLPLANDGGSRSPSSESSPQHPTPPARPRHMLGLPSTLFTPRSMESIEIDQKLQEIMKQTGYLTIGGQRYQAEINDLENLGEMGSGTCGQVWKMRFRKTGHVIAVKQMRRSGNKEENKRILMDLDVVLKSHDCPYIVQCFGTFITNTDVFIAMELMGTCAEKLKKRMQGPIPERILGKMTVAIVKALYYLKEKHGVIHRDVKPSNILLDERGQIKLCDFGISGRLVDSKAKTRSAGCAAYMAPERIDPPDPTKPDYDIRADVWSLGISLVELATGQFPYKNCKTDFEVLTKVLQEEPPLLPGHMGFSGDFQSFVKDCLTKDHRKRPKYNKLLEHSFIKRYETLEVDVASWFKDVMAKTESPRTSGVLSQPHLPFFR
B4: JNK1 P.G171S: JNK1 somatic mutant, observed in renal clear cell carcinoma (protein, UniProt P45983 1-427, looked up, variant G171S)
Mitogen-activated protein …: MSRSKRDNNFYSVEIGDSTFTVLKRYQNLKPIGSGAQGIVCAAYDAILERNVAIKKLSRPFQNQTHAKRAYRELVLMKCVNHKNIIGLLNVFTPQKSLEEFQDVYIVMELMDANLCQVIQMELDHERMSYLLYQMLCGIKHLHSAGIIHRDLKPSNIVVKSDCTLKILDFSLARTAGTSFMMTPYVVTRYYRAPEVILGMGYKENVDLWSVGCIMGEMVCHKILFPGRDYIDQWNKVIEQLGTPCPEFMKKLQPTVRTYVENRPKYAGYSFEKLFPDVLFPADSEHNKLKASQARDLLSKMLVIDASKRISVDEALQHPYINVWYDPSEAEAPPPKIPDKQLDEREHTIEEWKELIYKEVMDLEERTKNGVIRGQPSPLGAAVINGSQHPSSSSSVNDVSSMSTDPTLASDTDSSLEAAAGPLGCCR

What was measured:
cJUN phosphorylation = experiment: JNK Kinase Assay (WT and mutant kinases immunoprecipitated from HMEL cells); format: biochemical, human; conditions: as reported by level of cJUN phosphorylation; for MAP2K4/7 first incubated with inactive JNK2
[1] = system: HMEL-BRAF^V600E melanocytes; experiment: In vivo functional genetic screen and secondary validation: kinase-transduced HMEL cells implanted in nude mice; set-up: species or system human; conditions: for Tumorigenicity in vivo: WT or mutant kinase expressed individually
Source text: A ‘cancer-kinase’ library was constructed containing sequence-verified ORFs in a lentiviral vector for 110 of the 120 kinases reported to sustain somatic driver mutations in diverse human cancers. This library was pooled and introduced into a human HMEL-BRAF^V600E melanocyte model system engineered with BRAF^V600E and TERT as well as p53DD and CDK4-R24C to inactivate the […] pathways, respectively. The HMEL-BRAF^V600E melanocyte profile, while representing the most common clinically-definable genetic profile in human melanoma, is insufficient to drive efficient melanoma formation following orthotopic transplantation in the skin (penetrance of 10% and latency of 26 weeks). In contrast, 40% of HMEL-BRAF^V600E melanocytes transduced with the cancer kinase pools developed tumors with an average latency of 13 weeks (range 10-18 weeks).
In vivo functional genetic screens: Lentivirus were prepared by co-transfecting 293T cells with individual vector backbones and standard virus packaging systems for subsequent collection of viral supernatants. Viral supernatants were then pooled randomly to generate 8 pools of high-titer lentiviral stocks. HMEL cells were transduced with either GFP control lentivirus or each representative lentiviral pool in the presence of 8 ug/ml polybrene (Company). Infected cells were expanded, mixed 1:1 with Matrigel (BD Bioscience) and then subcutaneously implanted in female nude animals (Taconic) at 1×10^6 cells per site on both flanks. Primary INK4A/ARF−/−, PTEN−/− murine astrocytes were transduced with either GFP control lentivirus or each representative lentiviral pool in the presence of 8 ug/ml polybrene (Company). Infected cells were expanded implanted into the brain parenchyma of female SCID mice (Charles River). Briefly, SCID mice were anesthetized and placed into a stereotactic apparatus equipped with a Z axis (Stoelting). A small hole was bored in the skull 0.5 mm anterior and 3.0 mm lateral to the bregma using a dental drill. Twenty thousand cells in Hank's Buffered Salt Solution were injected into the right caudate nucleus 2 mm below the surface of the brain using a 10-ul Hamilton syringe with an unbeveled 30 gauge needle. The scalp was closed using a 9-mm Autoclip Applier. Animals were followed daily for the development of subQ tumors or signs of neurological deficits. Animals were sacrifice, tumors were harvested, genomic DNA was prepared and kinases expressed in each tumor identified using PCR sequencing using plasmid specific CMV and V5 primers. Expression of each kinase was further validated by western blot analysis. Kinases expressed in each tumor were then enlisted into secondary validation screens in which stable HMEL or mouse astrocyte lines were generated expressing each kinase individually. Cells were again expanded and then implanted in female nude or SCID animals. All mice were housed and treated in accordance with protocols approved by the institutional care and use committees for animal research at the Dana-Farber Cancer Institute.

| Molecule | Kinase Activity (cJUN phosphorylation) | Tumorigenicity in vivo [1] | tumor generation individually in secondary HMEL screens ([1]; kinase transduced individually) |
| --- | --- | --- | --- |
| B1 | 4X | YES | – |
| B2 | 3X | YES | – |
| B3 | 1X | – | did not generate tumors |
| B4 | 1X | YES | – |

Source: patent US20130040853A1, “Context Specific Genetic Screen Platform to Aid in Gene Discovery and Target Validation” (Dana-Farber Cancer Institute Inc., priority 2010, published 2013)
